Residue numbers refer to the chain shown, from its start.
T1: human Claudin 18.1 (human, UniProt P56856 1-261)
T1 construct: whole, on cells
T1 sequence (looked up): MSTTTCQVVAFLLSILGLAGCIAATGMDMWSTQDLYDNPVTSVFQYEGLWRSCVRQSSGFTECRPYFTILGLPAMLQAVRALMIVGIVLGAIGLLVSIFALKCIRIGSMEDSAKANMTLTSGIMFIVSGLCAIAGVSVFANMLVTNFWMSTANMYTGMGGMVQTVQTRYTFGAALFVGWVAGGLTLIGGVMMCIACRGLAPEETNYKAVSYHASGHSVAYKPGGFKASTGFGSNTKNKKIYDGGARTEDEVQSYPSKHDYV

T2: human Claudin 18.2 (human, UniProt P56856-2 1-261)
T2 construct: whole, on cells
T2 sequence (looked up): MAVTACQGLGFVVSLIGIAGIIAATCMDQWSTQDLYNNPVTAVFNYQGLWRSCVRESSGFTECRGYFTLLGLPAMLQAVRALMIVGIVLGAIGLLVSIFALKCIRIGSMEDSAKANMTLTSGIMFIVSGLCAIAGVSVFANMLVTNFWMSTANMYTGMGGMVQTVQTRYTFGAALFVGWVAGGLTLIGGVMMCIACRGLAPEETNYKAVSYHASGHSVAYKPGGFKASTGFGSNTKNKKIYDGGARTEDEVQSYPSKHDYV

B1: 8C11 (antibody, V domains shown)
VH: QVQLQQSGAELVKPGASVKLSCKASGYTFTTFGINWVRQRPEQGLEWIGWIFPGDGSIKYNEKFKGKATLTTDKSSSTAYMQISSLTSEDSAVYFCARFYYGNSFVSWGQGTLVTVSA
VL: DIVMTQSPSSLAVTAGEKVTMTCKSSQSLLNSGNQKNYLTWYQQRPGQPPKLLLYWASTRESGVPDRFTGSGSGTDFALTITSVQAEDLAVYYCQNDYTYPFTFGSGTKLEIK
notes: also called Clone 8C11
B2: 18G5 (antibody, V domains shown)
VH: EVQLQQSGREVVRPGTSVKVSCKPSGYAFTNYLIDWVKQRPGQGLEWIGGINPGSGDTVYNEKFKAKATLTADKSSMTTNMQLSSLTSDDSAVYFCARRVRGNSFDSWGQGTLVTVSA
VL: DIVMTQSPSSLTVRAGEKVTMTCKSSQSLFNSGNQRNYLTWYQQKPGQPPKLLLYWATARESGVPDRFTGSGSGTDFTLSISSVQAEDLAVYYCQNVYFYPLTFGAGTKLEIK
notes: also called Clone 18G5
B3: 9C9 (antibody, V domains shown)
VH: EVQLKESGPGLVAPSQSLSITCTVSGFSLTNYGVSWIRQPPGKGLEWLGAIWAGGNTNYNSALMSRLSIRKDNSKSQVFLKMNSLQTDDTAMYYCARVGYGNSFANWGQGTLVTVSA
VL: DIVMTQSPSSLTVTAGEKVTLSCKSSQTLLNSGNQKNYLTWYQQKPGQPPKLLIYWASTRESGVPDRFTGSGSGTDFTLTISSVQAEDLAVYYCQNNYFYPLTFGAGTRLEIK
notes: also called Clone 9C9
B4: 25F5 (antibody, V domains shown)
VH: QVQLKQSGAELVKPGASLKLSCKASGYTFTTYGINWVRQRPEQGLEWIGWIFPGDATTMYNEKFKGTATLTADKSSSTAYMQLSGLTSEDSAVYFCARFYYGNSFVDWGQGTLVTVSA
VL: B3 VL with L21M, T28S, N97A, F99Y, R109K
notes: also called Clone 25F5
B5: 15A7 (antibody, V domains shown)
VH: B1 VH with A16Y, T31N, Q43K, S57T, I58T, K63N, I83L, S85R, S107N
VL: B3 VL with Y55H, R109K
notes: also called Clone 15A7
B6: 15F9 (antibody, V domains shown)
VH: EIQLVQSGPELKKPGETVKISCKASGYTFTNYGINWVKQAPGKGLKWMGWINPNTGETTYAEEFKGRFALSWKTSASTAYLQINNLKNEDTATYFCARLYYGNRFDYWGQGTTLTVSS
VL: B3 VL with L21M, T28S, K36R, N97A, F99Y, R109K
notes: also called Clone 15F9; 15F9 Chimera
B7: 19B2 (antibody, V domains shown)
VH: QVQLQQSGAELVKPGTSVKLSCKASGYSFTTYGLNWVRQRPKQGLEWIGWIFPGDGNVNYNEKFQGQATLTTDKSSSTAYMQLSRLTSEDSAVYFCARFYYGNSLNYWGQGTLVTVSA
VL: B3 VL with L21M, T28S, Q35L, K36R, Q48R, R109K
notes: also called Clone 19B2
B8: 14H11 (antibody, V domains shown)
VH: EVQLVESGGGLVKPGGSLKLSCAVSGFTINNYGMSWVRQTPEKRLEWVATIIGGGSSTYYPDSLKGRFTISRDNAKNNLYLQMSSLRSEDTALYYCVRLYFGNSFAYWGQGTLVTVSA
VL: B3 VL with L21V, T28S, L30S, K36R, R109K, I112L
notes: also called Clone 14H11
B9: 18D10 (antibody, V domains shown)
VH: DVQLQESGPGLVKPSQSLSLTCTVTGYSITSNYAWNWIRQFPGNKLEWMGYINYSGNTNYNPSLKSRISITRDTSKNQFFLQLNSVTAEDTATYYCATSYYGNSFIYWGQGTLVTVSA
VL: B3 VL with L21M, T28S, N97A, F99S, Y100F, L102W, A106G, R109K
notes: also called Clone 18D10; 18D10 Chimera
B10: 18A9 (antibody, V domains shown)
VH: B2 VH with E1Q, T79A
VL: B3 VL with T5S, L21M, T28S, T75K, V91L, R109K, I112L
notes: also called Clone 18A9; 18A9 Chimera
B11: 13A8 (antibody, V domains shown)
VH: EVKLVESGGGLVRPGGSLKVSCAASGITFSRYAISWVRQTPEKRLEWVATISSGDSYTYYLDSVKGRFTISRDDAKNTLYLQMSSLRSEDTAMYYCGRLGYGNAMDYWGQGTSVTVSS
VL: B3 VL with D1N, V3M, L21M, T28S, N97D, F99S, R109K
notes: also called Clone 13A8
B12: 15D11 (antibody, V domains shown)
VH: B3 VH with E1Q, K5Q, E6Q
VL: B3 VL with L21M, T28S, Q35L, K36R, Q48R, R109K, I112L
notes: also called Clone 15D11
B13: 25A5 (antibody, V domains shown)
VH: B3 VH
VL: B3 VL with L21M, T28S, K36R, V64I, T69I, L89V, A90S, F99I, Y100F, R109K
notes: also called Clone 25A5
B14: 9D12 (antibody, V domains shown)
VH: B2 VH with K63R, A66D, M77S, T78S, T79A
VL: B3 VL with E17Q, L21M, T28S, T75K, Y92F, R109K, I112L
notes: also called Clone 9D12
B15: 9A8 (antibody, V domains shown)
VH: B2 VH with E1Q, T79A
VL: B3 VL with V3Q, L21M, T28S, K36R, P46T, S82N, F99Y, R109K
notes: also called Clone 9A8

Legend:
human Claudin 18.1 = target: T1, human Claudin 18.1; assay: flow cytometry on HEK293-Claudin 18.1 cells, chimeric IgG1
Method: (§1) The HEK293-Claudin 18.1 cells, HEK293-Claudin 18.2 cells and HEK293 cells at logarithmic growth phase were taken, after digesting, added at 5×10⁴ cells/100 μL to the U-shaped 96-well plate, centrifuged at 1100 rpm for 3 minutes, the supernatant was discarded, the cells were gently patted and loosed, 50 μL of antibody diluted according to the series was added to each well (antibody concentration starts from 100 nM, 5 times dilution in 8 series), and incubate at 4° C. for 1 hour. After the incubation, 140 μL 0.5% BSA was added to each well to wash 3 times, the secondary antibody AlexaFluro647 anti-human IgG (Jackson ImmunoResearch, catalog number: 109-606-170) was added with 30 μL/well, and incubated at 4° C. for 40 minutes. After the incubation, 140 μL 0.5% BSA was added to each well to wash 3 times, and finally resuspended each well with 50 μL PBS for flow cytometry (iQue Screener) detection.

human Claudin 18.2 [1] = target: T2, human Claudin 18.2; assay: flow cytometry (iQue) on HEK293-Claudin 18.2 cells, chimeric IgG1
Method: as §1

human Claudin 18.2 [2] = target: T2, human Claudin 18.2; assay: flow cytometry (iQue) on cells, antibody from 100 nM in 5-fold steps; cell line not named in Example 5
Method: The cells at logarithmic growth phase were taken, blocked with 3% BSA for 30 minutes, plated at 5×10⁴ cells/100 μL into a U-shaped 96-well plate, centrifuged at 1100 rpm for 3 minutes, the supernatant was discarded, the cells were gently patted and loosed, 50 μL of antibody diluted according to the series was added to each well (antibody concentration starts from 100 nM, 5 times dilution in 8 series), incubated at 4° C. for 1 hour. After the incubation, 140 μL of 0.5% BSA was added to each well to wash 3 times, AF 647 APC anti-human secondary antibody was added with 30 μL/well and incubated at 4° C. for 40 minutes. After the incubation, 140 μL of 0.5% BSA was added to each well to wash 3 times, and finally resuspended each well with 50 μL PBS for iQue (Intellicyt, USA) detection (shown in Table 2).

Binder | binding result (human Claudin 18.1) | EC50 (human Claudin 18.2 [1]) | EC50 (human Claudin 18.2 [2])
B1 | no binding (tested: 100 nM (highest concentration tested)) | 0.23 nM | 
B2 | no binding (tested: 100 nM (highest concentration tested)) | 3.79 nM | 
B3 | no binding (tested: 100 nM (highest concentration tested)) | 1.46 nM | 
B4 | no binding (tested: 100 nM (highest concentration tested)) | 2.14 nM | 
B5 | no binding (tested: 100 nM (highest concentration tested)) | 0.59 nM | 
B6 | no binding (tested: 100 nM (highest concentration tested)) | 0.17 nM | 3.32 nM
B7 | no binding (tested: 100 nM (highest concentration tested)) | 0.2 nM | 
B8 | no binding (tested: 100 nM (highest concentration tested)) | 0.22 nM | 
B9 | no binding (tested: 100 nM (highest concentration tested)) | 0.37 nM | 2.07 nM
B10 | no binding (tested: 100 nM (highest concentration tested)) | 0.31 nM | 1.03 nM
B11 | no binding (tested: 100 nM (highest concentration tested)) | 0.25 nM | 
B12 | no binding (tested: 100 nM (highest concentration tested)) | 0.21 nM | 
B13 | no binding (tested: 100 nM (highest concentration tested)) | 0.19 nM | 
B14 | no binding (tested: 100 nM (highest concentration tested)) | 6.78 nM | 
B15 | no binding (tested: 100 nM (highest concentration tested)) | 0.21 nM | 
